Key:
FcγRI [1] = molecular target: FcγRI (UniProt P12314); assay: SPR; Biacore T200, 25°C, HBS-EP+; anti-His antibody amine-coupled on a CM5 chip captures the His-tagged FcγR; rituximab injected at five increasing concentrations (150 s, 30 µl/min), single-cycle kinetics, dissociation 600 s; 1:1 binding model, KD from kd/ka
FcγRIIIa V176 [2] = molecular target: FcγRIIIa V176 (UniProt P08637)
FcγRI [3] = molecular target: FcγRI (UniProt P12314); assay: SPR; Biacore T200, 25°C, HBS-EP+; His-tagged FcγR captured by anti-His antibody on a CM5 chip, rituximab injected; single-cycle kinetics, five concentrations, 600 s dissociation; 1:1 binding model, KD from kd/ka
FcγRIIIa V176 [4] = molecular target: FcγRIIIa V176 (UniProt P08637); assay: SPR; Biacore T200, 25°C, HBS-EP+; anti-His antibody amine-coupled on a CM5 chip captures the His-tagged FcγR; rituximab injected at five increasing concentrations (150 s, 30 µl/min), single-cycle kinetics, dissociation 600 s; 1:1 binding model, KD from kd/ka
FcγRIIIa F176 [5] = molecular target: FcγRIIIa F176 (UniProt P08637); assay: as above
FcγRIIb [6] = molecular target: FcγRIIb (UniProt P31994); assay: SPR; Biacore T200, 25°C, HBS-EP+; anti-His antibody on a CM5 chip captures His-tagged FcγRIIb (404 RU); rituximab 375-6000 nM injected; steady-state model, report points 15 s after injection start
FcγRIIb [7] = molecular target: FcγRIIb (UniProt P31994); assay: SPR; Biacore T200, 25°C, HBS-EP+; His-tagged FcγRIIb captured by anti-His antibody on a CM5 chip (404 RU), rituximab injected at 375-6000 nM; steady-state model, report points 15 s after injection start
FcγRIIIa F176 [8] = molecular target: FcγRIIIa F176 (UniProt P08637); assay: SPR; Biacore T200, 25°C, HBS-EP+; His-tagged FcγR captured by anti-His antibody on a CM5 chip, rituximab injected; single-cycle kinetics, five concentrations, 600 s dissociation; 1:1 binding model, KD from kd/ka

Sequence of UniProt P12314 (P12314 16-292): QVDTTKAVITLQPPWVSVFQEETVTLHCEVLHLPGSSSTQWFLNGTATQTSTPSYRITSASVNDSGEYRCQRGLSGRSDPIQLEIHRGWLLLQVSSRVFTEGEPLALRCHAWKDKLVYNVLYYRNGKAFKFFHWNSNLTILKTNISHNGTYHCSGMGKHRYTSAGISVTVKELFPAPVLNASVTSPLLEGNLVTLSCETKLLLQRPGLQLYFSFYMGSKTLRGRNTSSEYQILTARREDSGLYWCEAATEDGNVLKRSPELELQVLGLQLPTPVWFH
Sequence of UniProt P31994 (P31994 43-217): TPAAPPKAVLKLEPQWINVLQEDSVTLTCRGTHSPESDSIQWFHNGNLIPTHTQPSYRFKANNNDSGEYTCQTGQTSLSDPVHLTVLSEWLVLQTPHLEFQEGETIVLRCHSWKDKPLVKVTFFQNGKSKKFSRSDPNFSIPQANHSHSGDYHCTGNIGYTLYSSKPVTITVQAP

Kd (FcγRI [1]) | EC50 of the ADCC Reporter Bioassay (Promega G7015): Raji target cells, engineered Jurkat effector cells, luciferase; FcγRIIIa variant on the effector cells not stated (FcγRIIIa V176 [2]) | Kd (FcγRI [3]) | Kd (FcγRIIIa V176 [4]) | Kd (FcγRIIIa F176 [5]) | EC50 of the ADCC Reporter Bioassay (Promega G7015); Day 7 samples from 200, 400 and 800 µM ThioFuc (38, 34, 37 ng/mL); FcγRIIIa variant on the effector cells not stated (FcγRIIIa V176 [2]) | Kd (FcγRIIb [6]) | Kd (FcγRIIb [7]) | Kd (FcγRIIIa F176 [8]) | Substance
12 nM | 87 ng/mL | 14 nM |  |  |  |  |  |  | rituximab (8.5% afucosylation) (antibody)
 |  | 11.3 nM | 13 nM | 70 nM | 38 ng/mL | 908 nM | 893 nM | 72 nM | modified rituximab (46% afucosylation and 48% thiofucosylation) (antibody)

Reference: PMC8248388
